{"source": "paper doi:10.1101/2023.11.26.568766", "about": "(bioRxiv, 2023)", "target": "the molecule itself", "experiment": "crystal structure", "data": [{"protein": "XccOpgD (D379N), OpgD from Xanthomonas campestris pv. campestris (enzyme) AKAVGLRRLGQPQPFDYAWLKGQARALAKAPYKSHKQVLPGPLESLNWDQYQSIRYRQDHALWADGNGKFQAKFFHLGLYFHTPVHIYDIVDGKAQQLAYDPAAFDYGRSGLGGKQLPKDLGFAGFRLNTRKDTDRDFSAFLGASYFRAVGKEGQYGQSARGLAIDTGTGGPEEFPDFIAYYLEQPADDSDTVVVYGLLDSPSVSGAYRFAITNGEVLVMDIDSALYPRKAIERLGIGPCTSMYQTGENDRRMDWDWRPEIHDTDGLAMWTGGGEWIWRPLCNPPHLRFNMFVDENPRGFGLLQRDRNFDHYQDDGVFYEKRPCLWVEPKSGWGKGSVQLVEIPTVDETFNNIVAFWNPQAKPQPGQELLMGYRLYWGAHPPASSPLAHCVATRTGLGGIVGQKRSHFSWRFAVDFAGGELAALAKDPKAKVEAVLQVSRGTTEIVSARPLHELKGYRAMFDLVPPDEGTQQIDIRLFLRANGKPLTETWLYQWTPPPASERKIY", "values": [{"measurement": "binding result", "result": "binds"}]}]}
